From the DeepSol protein solubility set

Assay: soluble on expression in E. coli; label from the status in PepcDB or PDB records
In the case of “MGSTSTPDSSTNRLQDKVAIITGGAGGIGETTAKLFVRYGAKVVIADIADDHGQKVCNNIGSPDVISFVHCDVTKDEDVRNLVDTTIAKHGKLDIMFGNVGVLSTTPYSILEAGNEDFKRVMDINVYGAFLVAKHAARVMIPAKKGSIVFTASISSFTAGEGVSHVYTATKHAVLGLTTSLCTELGEYGIRVNCVSPYIVASPLLTDVFGVDSSRVEELAHQAANLKGTLLRAEDVADAVAYLAGDESKYVSGLNLVIDGGYTRTNPAFPTALKHGLA”, the “soluble on expression in E. coli” value is reported as “soluble”. In the case of “EESPFVGNPGNITGARGLTGTLRCQLQVQGEPPEVHWLRDGQILELADSTQTQVPLGEDEQDDWIVVSQLRITSLQLSDTGQYQCLVFLGHQTFVSQPGYVGLEGLPYFLEEPEDRTVAANTPFNLSCQAQGPPEPVDLLWLQDAVPLATAPGHGPQRSLHVPGLNKTSSFSCEAHNAKGVTTSRTATITVLPQQ”, the “soluble on expression in E. coli” value is reported as “soluble”. In the case of “MKALRSSSRLSRWREWAAPLWVGCNFSAWMRLLIRNRFAVHHSRWHFAVLYTFLSMVNSCLGLWQKIVFGRRVAETVIADPPIFIVGHWRTGTTLLHELLVVDDRHTGPTGYECLAPHHFLLTEWFAPYVEFLVSKHRAMDNMDLSLHHPQEDEFVWCMQGLPSPYLTIAFPNRPPQYEEYLDLEQVAPRELEIWKRTLFRFVQQVYFRRRKTVILKNPTHSFRIKVLLEVFPQAKFIHIVRDPYVVYPSTIHLHKALYRIHGLQQPTFDGLDDKVVSTYVDLYRKLDEGRELVDPTRFYELRYEDLIGDPEGQLRRLYQHLGLGDFECYLPRLRQYLADHADYKTNSYQLTVEQRAIVDEHWGEIIDRYGYDRHTPEPARLRPAVGG”, the “soluble on expression in E. coli” value is reported as “not soluble”. In the case of “MNQQTVNVIGAGLAGSEAAWQLAKRGIQVKLYEMRPVKQTPAHHTDKFAELVCSNSLRSNTLANAVGVLKEEMRALDSAIIAAADECSVPAGGALAVDRHEFAASVTNRVKNHPNVTVINEEVTEIPEGPTIIATGPLTSESLSAQLKELTGEDYLYFYDAAAPIVEKDSLDMDKVYLKSRYDKGEAAYLNCPMTEEEFDRFHEALTSAETVPLKEFEKEIFFEGCMPIEVMAKRGKKTMLFGPMKPVGLEHPVTGKRPYAVVQLRQDDAAGTLYNIVGFQTHLKWGDQKEVLKLIPGLENVEIVRYGVMHRNTFINSPSLLKPTYQFKNRSDLFFAGQMTGVEGYVESAASGLVAGINAAKLVLGEELVIFPQETAIGSMAHYITTTNQKNFQPMNANFGLLKELPVKIKNKKERNEQYANRAIETIQTISKTILEHHHHHH”, the “soluble on expression in E. coli” value is reported as “soluble”. With “MAGDPMSIPFFSFSWAVMSNLTYLQGYPEQLLSQVRTLINEQRLGDVLAKRYPGTHDYATDKALWQYTQDLKNQFLRNAPPINKVMYDNKIHVLKNALGLHTAVSRVQGSKLKAKAEIRVATVFRNAPEPFLRMIVVHELAHLKEKEHNKAFYQLCCHMEPQYHQLEFDTRLWLTQLSLGQDKILEHHHHHH” the “soluble on expression in E. coli” value was “not soluble”. In the case of “SETRGPQGAANPMDSSRSLGDLGPFPREVGRGAPLAPGARNPATAGASRSQGGGHEDRTADRALGPRAGEELDRESWVREKVLFLLHPERWLGTRGDPAREEVAGAEDLPHAGGEDHGEEPNYPSVFQREKRISGRRVAPPRDAADPPKYVLVRVEDYQVTQEVLQTSWAKGRMTTRTEEHFVTALTFRSSREGQPGERWGPAESRALQARTGASRVHAAGRRVSPSPGTWLEEIKL”, the “soluble on expression in E. coli” value is reported as “soluble”. For “MSLTLISLQTFAAAWEEKLYNPMPDAEDVVLPMPCDGAMVFRKVYIPLAGPLDDYPVNIGGDNAEYGYVEQTHPAFIAGSFTTEKNAKSRYYLLAKYEMTVLQYSALTQAECPAPSNKQRLPVVSLSWMQAMEAADKYNIWLRENAADKLPKEDGVAGFLRLPTEVEWEFAARGGLNVSTAEFRDLRYPMPEGVNAYEWFAGTQSANGQLQLSGLLKPNPLGLHDMLGNVDEMMFEPFRLNKLDRQHGQAGGYVVRGGDFRTAQGELRSSLRKERNYYDAKAAATSKTTGVRLALASSTLTSRERVSSIETSWKEGHHHHHH”, the “soluble on expression in E. coli” value was “not soluble”. For “MGSDKIHHHHHHMRIAQVAPLWERVPPPAYGGIELVVGLLTDELVRRGHEVTLFASGDSISLAKLVSVHPRALRLDRTIKDYSVYETLNLASAYERAEEFDIIHSHIGHGALAYANLVTTPTVHTLHGIFTSDNEKMFSFGKKQPYVSISDAQREPRLGLNCIATVYNGIDVSSYNFHAQPEDPPYLAFLGRMSPEKGAHLAIEIAKQAGWCLKMAGKVDVVDVEYFEKEIKPHIDGEQIQYLGEANHAQKNALMGGAFATLFPITWREPFGLVMVESMASGTPVIAMNLGSTEEVISHGKTGFLCNNLQECISAVDRVIELDRYTCRQYVEDLFSVEQMTDGYEAVYQKIIAERFSRNGHSRNLIALSSDRI”, the “soluble on expression in E. coli” value was “not soluble”. For “MNPLERKVKQEAEEDGYSSFDEFPAGAIRIPYEELMAKVRAKKAEAEAAQDLVNENSFDQFVAAPPAPPVQKPAVEPSPSCSPETVAVQKFVTEFMQAAGGSRELRIIKDSQETKIVWKTSPAKPKAPPVEDDPTDPTDSQVSTVSSIIPVSSPRGKRRIVVSSDKDSDGDETPTEDNVNNDDQDVTPKKNRKPPVEVVTPSPAKRLRGLNLRSAHSSSDSESDFQDTQCEDSQDSDYFPDTQEQRDRPADFRIPKNAAYDPLDLSYN”, the “soluble on expression in E. coli” value was “not soluble”. With “MQAFEPYIALNSHVRKPVIHISLNPSPKDILSKEQMTVLAQEFMEKFGYGNQPYIVWLHEDIDRKHMHIISVRINEKGEKIDHNREAIRAQNICRDMEVKYGLHSTLGEHSERELLSLQKVDYPKGDVKAQVKHTARTLLECYNCHSLAEYNTLLNLYNVTVYEVRGSVDGKEYYGIMYGALDDDGQQAGTPFKSSKFGKVFGYEALQKKFAATAEKVKRNSLAERARQEIVKAMQDISTKEAFARRLKDADIEVVYRINPEGRLYGITFIDHTNRTVFNGSRLGKAFSANVFNELFNNPDADRTKLIPPPEQDTPRQARETDAEERQEREEYRQQENRGNYQSEPSGSLIDTSALGAIDIFSVLMEDDHTHEYIDPAFRFGHKKKKKRRRRLLEHHHHHH” the “soluble on expression in E. coli” value was “soluble”. For “MLKVIRRFFTAKQRQTPAKQDVELESGRGWAGLEEWRLVAKYSVGPVEYYLYRDNSEGVRLTFKEPPEPGEAVVKEIIAGNIEPVGEGERYHAEKRMSGYGRLYPLIIDGHIEEIAFEGPGRGVSVIHSLVPGRWIDVDLKLGEDEANSLALQLARKAGRSLSLAQPLAEGLTGEGHRVAVTFSREVSRFGSSFVIRKYPEKPVTMADLVASRVLTPLQAAYLWLLVESQQFIVVSGPMGSGKTTLLQALAGLIPPFYRVITIEDTPEIRLYNRHWDSLVTRPPLPGESMVEVDLEALLRFALRRRAEYIIVGEVRGREARLLAQAAASGHGSMTTMHGDTPEGVILRLQLEPISLPPVFLSLIGAIVMLRRLPGYGGAVRRRVVSITEIEGGEAVDVFAWDPKGDLVSPDNPRDIVESSFRLREAVSRIPDLITDLEAELSERAGLLEKLAGSPPEVFHKALARFYSERYGRV”, the “soluble on expression in E. coli” value was “soluble”. With “MNIKLYYVHDPMCSWCWGYKPTIEKLKQQLPGVIQFEYVVGGLAPDTNLPMPPEMQQKLEGIWKQIETQLGTKFNYDFWKLCTPVRSTYQSCRAVIAAGFQDSYEQMLEAIQHAYYLRAMPPHEEATHLQLAKEIGLNVQQFKNDMDGTLLEGVFQDQLSLAKSLGVNSYPSLVLQINDAYFPIEVDYLSTEPTLKLIRERIIENMSAQ” the “soluble on expression in E. coli” value was “soluble”. For “MGSDKIHHHHHHGDIYNGTTMGVTFATGTQSVSFPSTGYEGFDVEVLRAKSSEATTINLSATLVVGDKEQELPASITVPSSVSFAAGEFKTNIHVTVGDITPGQNYKVKISLPEEMVTIDQTSDKVITVYRDYTFSSLGTGTFKSAAMAEEGEDFTTWEVEVQKADQISWYKAMNLYEKGYNIVFKVNEANEVTVESQPAWKHASYGEVFVSGKGALEDGVITVKLSHDVPNVGGFGEFKEILYLPAK”, the “soluble on expression in E. coli” value was “not soluble”. In the case of “MDSRIAIYVLVSASLLYLVNCHKLVHYFNLKINGSDITNTADILLDNYPIMTFDGKDIYPSIAFMVGNKLFLDLYKNIFVEFFRLFRVSVSSQYEELEYYYSCDYTNNRPTIKQHYFYNGEEYTEIDRSKKATNKNSWLITSGFRLQKWFDSEDCIIYLRSLVRRMEDSNKNSKKT”, the “soluble on expression in E. coli” value is reported as “not soluble”. For “STGKKPKHHVLSHDIIPASKPIAEKLQIQPESPVVELKRILYNDDQPLTFEVTHYPLDLFPGIDTFIADGVSMHDILKQQYKVVPTHNTKLLNVVYAQQEESKYLDCDIGDALFEIDKTAFTSNDQPIYCSLFLMHTNRVTFTINSPYT”, the “soluble on expression in E. coli” value was “soluble”. With “MAKNKTVFSCTECGGQSPKWQGQCPHCSAWNTLVEAVAAPAAASPRFQSWAANVTKVQKLSEVQTEETPRDPSGIDELDRVLGGGIVRGAVVLIGGDPGIGKSTLLLQALSQIGRSRKVLYVSGEESAQQIALRASRLALDTSSVDLLAEICIENILETLKREQPEVVVIDSIQTLYTEQVTSAPGSVSQVRECAAQLTRMAKQSGITVLLVGHVTKEGSLAGPRVLEHMVDTVLYFEGDSHSSYRMIRAIKNRFGAVNELGVFAMTDRGLKGVSNPSAIFLSSYRDDVAGSCVLVTQEGTRPLLVEIQALVDDCHGFQPKRLTVGLEQNRLSMLLAVLHRHGGVACFDQDVFLNAVGGVKINEPAADLAIILAMVSSLRNKALPEKLVVFGEVGLAGEVRPVTRGQERLKEAAKLGFTRAIVPTANKPRQEIEGLKVLAVDRLDQAVEYCRE” the “soluble on expression in E. coli” value was “not soluble”. With “MAHHHHHHVDDDDKMFSTQVNSSLTSPTGRGSMAAPSLHPSLGPGIGSPGQLHSPISTLSSPINGMGPPFSVISSPMGPHSMSVPTTPTLGFSTGSPQLSSPMNPVSSSEDIKPPLGLNGVLKVPAHPSGNMASFTKHICAICGDRSSGKHYGVYSCEGCKGFFKRTVRKDLTYTCRDNKDCLIDKRQRNRCQYCRYQKCLAMGMKREAVQEERQRGKDRNENEVESTSSANEDMPVERILEAELAVEPKTETYVEANMGLNPSSPNDPVTNICQAADKQLFTLVEWAKRIPHFSELPLDDQVILLRAGWNELLIASFSHRSIAVKDGILLATGLHVHRNSAHSAGVGAIFDRVLTELVSKMRDMQMDKTELGCLRAIVLFNPDSKGLSNPAEVEALREKVYASLEAYCKHKYPEQPGRFAKLLLRLPALRSIGLKCLEHLFFFKLIGDTPIDTFLMEMLEAPHQMT” the “soluble on expression in E. coli” value was “soluble”. In the case of “MGSDKIHHHHHHMSEVLKRRMRCAVYTRKSTDEGLDQEYNSIDAQRDAGHAYIASQRAEGWIPVADDYDDPAFSGGNMERPALQRMMADIEAGKIDVVVIYKIDRLTRSLADFSKMVEVFERYAVSFVSVTQQFNTTTSMGRLMLNILLSFAQFEREVTGERIRDKISASKRKGMWMGGVPPLGYDVENRRLVPNEREAKLIRHIFQRFVELGSSTALVKELKLDGVTSKAWTTQDGKTRDGRLIDKGHIYKLLSNRTYLGELRHKDQWYQAEHPPIINRELWDSVHAILETNGRVRGNTTRAKVPYLLKGIVFGNDGRALSPWHTTKKNGRRYRYYVPQRDAKEHAGASGLPRLPAAELESAVLDQLRAILRAPNLLGEMLPQAIKLDPTLDEAKITVAMTRLDAIWDQLFPAEQTRIVKLLVEKVIVSPNDLEVRLRANGIERLVLELRPEPVEQQEVARA”, the “soluble on expression in E. coli” value is reported as “not soluble”. With “GQYKIQIFEKGDFSGQMYETTEDCPSIMEQFHMREIHSCKVLEGVWIFYELPNYRGRQYLLDKKEYRKPIDWGAASPAVQSFRRIVE” the “soluble on expression in E. coli” value was “soluble”. For “MGSDKIHHHHHHMSNNLLVLQSDFGLVDGAVSAMIGVALQEAPTLGIHNLTHEITPYNIFEASYRLFQTVEYWPQGTTFVSVVDPGVGSDRKSVVALTSRNQYIVTPDNGTLSYIKKHVGIKAVREISEIENRRRNTELSYTFHGRDVYAFTGAKLASDHISFEEVGPELAIESIVELPVVETVIEDNLVRGAVDILDVRFGSLWTSITREEFYTLKPEFNDRFEVTIYNNDMLVYQNQVTYGKSFAAVRIGQPIIYINSLYRVGVAINQGSFANAYNVGVGPQWRIEIKKLN”, the “soluble on expression in E. coli” value was “not soluble”. For “MSLEEWIKADSLEKADEYHKRYNYAVTNPVRRKILRMLDKGRSEEEIMQTLSLSKKQLDYHLKVLEAGFCIERVGERWVVTDAGKIVDKIRG”, the “soluble on expression in E. coli” value was “soluble”.
